This is an account of results in patent US20230058779A1, “COMBINATION CANCER TREATMENT USING A PD-1 ANTAGONIST, AN ILT4 ANTAGONIST, AND LENVATINIB OR SALTS THEREOF” (Merck Sharp & Dohme LLC, priority 2020, published 2023).

This series relates to participants with advanced solid tumors. Description: Phase 1 open label, multi-arm, multi-center study of MK-4830 as monotherapy or in combination with pembrolizumab (NCT03564691). Type of series: in vivo, human. The conditions noted are these: 1600 mg dose level, MK-4830 monotherapy cohort.

Take “MK-4830: anti-ILT4 antibody; light chain SEQ ID NO:5, heavy chain SEQ ID NO:10”: the “transient Grade 3 blood pressure increase” value is on record as “one episode”.
